Source: patent US20210032299A1
Starred links: 1 amine or outer side, 2 acyl side, 3 side chain; linkers in the order of their positions; H or OH if unused. Non-standard residues stand in square brackets, D forms with d. Groups on a side chain read outwards from the residue. No end group written: not given here. *: point of attachment. C20 diacid = O=C(O)CCCCCCCCCCCCCCCCCCC(=O)*; C18 diacid = O=C(O)CCCCCCCCCCCCCCCCC(=O)*; αMePhe(2-F) = C[C@](N)(Cc1ccccc1F)C(=O)O; γGlu = O=C(O)[C@H](CCC(=O)[*:2])N[*:1]; 4Pal = N[C@@H](Cc1ccncc1)C(=O)O; αMeL = CC(C)C[C@](C)(N)C(=O)O; Orn = NCCC[C@H](N)C(=O)O; AEEA = NCCOCCOCC(=O)O; Aib = CC(C)(N)C(=O)O

T1: human glucose-dependent insulinotropic polypeptide (GIP) receptor (human), P48546
T1 chain: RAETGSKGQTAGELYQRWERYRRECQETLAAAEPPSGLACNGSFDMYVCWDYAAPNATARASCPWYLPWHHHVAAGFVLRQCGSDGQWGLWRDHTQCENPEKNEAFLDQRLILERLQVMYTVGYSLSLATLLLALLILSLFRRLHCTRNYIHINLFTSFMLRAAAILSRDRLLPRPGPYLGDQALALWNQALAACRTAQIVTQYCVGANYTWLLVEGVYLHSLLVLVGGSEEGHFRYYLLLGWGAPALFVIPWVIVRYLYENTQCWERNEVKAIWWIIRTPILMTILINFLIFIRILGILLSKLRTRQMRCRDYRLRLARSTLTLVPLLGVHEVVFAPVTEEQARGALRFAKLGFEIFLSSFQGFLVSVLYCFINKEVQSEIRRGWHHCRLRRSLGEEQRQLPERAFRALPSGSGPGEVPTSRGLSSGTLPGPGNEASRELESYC

B1: Example 114 (peptide)
peptide: Y[Aib]EGT[αMePhe(2-F)]ISDYSIALDKIHQ[Aib]DFVE[4Pal]K([AEEA-AEEA-γGlu-C20 diacid])LEQGPSSGAPPPS-NH2
modifications: N-terminus assumed
SMILES: CC[C@H](C)[C@H](NC(=O)[C@H](CO)NC(=O)[C@H](Cc1ccc(O)cc1)NC(=O)[C@H](CC(=O)O)NC(=O)[C@H](CO)NC(=O)[C@@H](NC(=O)[C@](C)(Cc1ccccc1F)NC(=O)[C@@H](NC(=O)CNC(=O)[C@H](CCC(=O)O)NC(=O)C(C)(C)NC(=O)[C@@H](N)Cc1ccc(O)cc1)[C@@H](C)O)[C@@H](C)CC)C(=O)N[C@@H](C)C(=O)N[C@@H](CC(C)C)C(=O)N[C@@H](CC(=O)O)C(=O)N[C@@H](CCCCN)C(=O)N[C@H](C(=O)N[C@@H](Cc1c[nH]cn1)C(=O)N[C@@H](CCC(N)=O)C(=O)NC(C)(C)C(=O)N[C@@H](CC(=O)O)C(=O)N[C@@H](Cc1ccccc1)C(=O)N[C@H](C(=O)N[C@@H](CCC(=O)O)C(=O)N[C@@H](Cc1ccncc1)C(=O)N[C@@H](CCCCNC(=O)COCCOCCNC(=O)COCCOCCNC(=O)CC[C@H](NC(=O)CCCCCCCCCCCCCCCCCCC(=O)O)C(=O)O)C(=O)N[C@@H](CC(C)C)C(=O)N[C@@H](CCC(=O)O)C(=O)N[C@@H](CCC(N)=O)C(=O)NCC(=O)N1CCC[C@H]1C(=O)N[C@@H](CO)C(=O)N[C@@H](CO)C(=O)NCC(=O)N[C@@H](C)C(=O)N1CCC[C@H]1C(=O)N1CCC[C@H]1C(=O)N1CCC[C@H]1C(=O)N[C@@H](CO)C(N)=O)C(C)C)[C@@H](C)CC
B2: Example 110 (peptide)
peptide: Y[Aib]EGTFISDYSI[αMeL]LDKIHQ[Aib]DFVE[4Pal]K([AEEA-AEEA-γGlu-C18 diacid])LEGGPSSGAPPPS-NH2
modifications: N-terminus assumed
SMILES: CC[C@H](C)[C@H](NC(=O)[C@H](CCCCN)NC(=O)[C@H](CC(=O)O)NC(=O)[C@H](CC(C)C)NC(=O)[C@](C)(CC(C)C)NC(=O)[C@@H](NC(=O)[C@H](CO)NC(=O)[C@H](Cc1ccc(O)cc1)NC(=O)[C@H](CC(=O)O)NC(=O)[C@H](CO)NC(=O)[C@@H](NC(=O)[C@H](Cc1ccccc1)NC(=O)[C@@H](NC(=O)CNC(=O)[C@H](CCC(=O)O)NC(=O)C(C)(C)NC(=O)[C@@H](N)Cc1ccc(O)cc1)[C@@H](C)O)[C@@H](C)CC)[C@@H](C)CC)C(=O)N[C@@H](Cc1c[nH]cn1)C(=O)N[C@@H](CCC(N)=O)C(=O)NC(C)(C)C(=O)N[C@@H](CC(=O)O)C(=O)N[C@@H](Cc1ccccc1)C(=O)N[C@H](C(=O)N[C@@H](CCC(=O)O)C(=O)N[C@@H](Cc1ccncc1)C(=O)N[C@@H](CCCCNC(=O)COCCOCCNC(=O)COCCOCCNC(=O)CC[C@H](NC(=O)CCCCCCCCCCCCCCCCC(=O)O)C(=O)O)C(=O)N[C@@H](CC(C)C)C(=O)N[C@@H](CCC(=O)O)C(=O)NCC(=O)NCC(=O)N1CCC[C@H]1C(=O)N[C@@H](CO)C(=O)N[C@@H](CO)C(=O)NCC(=O)N[C@@H](C)C(=O)N1CCC[C@H]1C(=O)N1CCC[C@H]1C(=O)N1CCC[C@H]1C(=O)N[C@@H](CO)C(N)=O)C(C)C
B3: Example 111 (peptide)
peptide: Y[Aib]EGTFISDYSI[αMeL]LD[Orn]IHQ[Aib]DFVE[4Pal]K([AEEA-AEEA-γGlu-C18 diacid])LEGGPSSGAPPPS-NH2
modifications: N-terminus assumed
SMILES: CC[C@H](C)[C@H](NC(=O)[C@H](CCCN)NC(=O)[C@H](CC(=O)O)NC(=O)[C@H](CC(C)C)NC(=O)[C@](C)(CC(C)C)NC(=O)[C@@H](NC(=O)[C@H](CO)NC(=O)[C@H](Cc1ccc(O)cc1)NC(=O)[C@H](CC(=O)O)NC(=O)[C@H](CO)NC(=O)[C@@H](NC(=O)[C@H](Cc1ccccc1)NC(=O)[C@@H](NC(=O)CNC(=O)[C@H](CCC(=O)O)NC(=O)C(C)(C)NC(=O)[C@@H](N)Cc1ccc(O)cc1)[C@@H](C)O)[C@@H](C)CC)[C@@H](C)CC)C(=O)N[C@@H](Cc1c[nH]cn1)C(=O)N[C@@H](CCC(N)=O)C(=O)NC(C)(C)C(=O)N[C@@H](CC(=O)O)C(=O)N[C@@H](Cc1ccccc1)C(=O)N[C@H](C(=O)N[C@@H](CCC(=O)O)C(=O)N[C@@H](Cc1ccncc1)C(=O)N[C@@H](CCCCNC(=O)COCCOCCNC(=O)COCCOCCNC(=O)CC[C@H](NC(=O)CCCCCCCCCCCCCCCCC(=O)O)C(=O)O)C(=O)N[C@@H](CC(C)C)C(=O)N[C@@H](CCC(=O)O)C(=O)NCC(=O)NCC(=O)N1CCC[C@H]1C(=O)N[C@@H](CO)C(=O)N[C@@H](CO)C(=O)NCC(=O)N[C@@H](C)C(=O)N1CCC[C@H]1C(=O)N1CCC[C@H]1C(=O)N1CCC[C@H]1C(=O)N[C@@H](CO)C(N)=O)C(C)C
B4: Example 109 (peptide)
peptide: Y[Aib]EGTFISDYSI[αMeL]LDKIHQ[Aib]DFVE[4Pal]K([AEEA-AEEA-γGlu-C20 diacid])LEGGPSSGAPPPS-NH2
modifications: N-terminus assumed
SMILES: CC[C@H](C)[C@H](NC(=O)[C@H](CCCCN)NC(=O)[C@H](CC(=O)O)NC(=O)[C@H](CC(C)C)NC(=O)[C@](C)(CC(C)C)NC(=O)[C@@H](NC(=O)[C@H](CO)NC(=O)[C@H](Cc1ccc(O)cc1)NC(=O)[C@H](CC(=O)O)NC(=O)[C@H](CO)NC(=O)[C@@H](NC(=O)[C@H](Cc1ccccc1)NC(=O)[C@@H](NC(=O)CNC(=O)[C@H](CCC(=O)O)NC(=O)C(C)(C)NC(=O)[C@@H](N)Cc1ccc(O)cc1)[C@@H](C)O)[C@@H](C)CC)[C@@H](C)CC)C(=O)N[C@@H](Cc1c[nH]cn1)C(=O)N[C@@H](CCC(N)=O)C(=O)NC(C)(C)C(=O)N[C@@H](CC(=O)O)C(=O)N[C@@H](Cc1ccccc1)C(=O)N[C@H](C(=O)N[C@@H](CCC(=O)O)C(=O)N[C@@H](Cc1ccncc1)C(=O)N[C@@H](CCCCNC(=O)COCCOCCNC(=O)COCCOCCNC(=O)CC[C@H](NC(=O)CCCCCCCCCCCCCCCCCCC(=O)O)C(=O)O)C(=O)N[C@@H](CC(C)C)C(=O)N[C@@H](CCC(=O)O)C(=O)NCC(=O)NCC(=O)N1CCC[C@H]1C(=O)N[C@@H](CO)C(=O)N[C@@H](CO)C(=O)NCC(=O)N[C@@H](C)C(=O)N1CCC[C@H]1C(=O)N1CCC[C@H]1C(=O)N1CCC[C@H]1C(=O)N[C@@H](CO)C(N)=O)C(C)C
B5: Example 108 (peptide)
peptide: Y[Aib]EGTFISDYSI[αMeL]LD[Orn]IHQ[Aib]DFVE[4Pal]K([AEEA-AEEA-γGlu-C20 diacid])LEGGPSSGAPPPS-NH2
modifications: N-terminus assumed
SMILES: CC[C@H](C)[C@H](NC(=O)[C@H](CCCN)NC(=O)[C@H](CC(=O)O)NC(=O)[C@H](CC(C)C)NC(=O)[C@](C)(CC(C)C)NC(=O)[C@@H](NC(=O)[C@H](CO)NC(=O)[C@H](Cc1ccc(O)cc1)NC(=O)[C@H](CC(=O)O)NC(=O)[C@H](CO)NC(=O)[C@@H](NC(=O)[C@H](Cc1ccccc1)NC(=O)[C@@H](NC(=O)CNC(=O)[C@H](CCC(=O)O)NC(=O)C(C)(C)NC(=O)[C@@H](N)Cc1ccc(O)cc1)[C@@H](C)O)[C@@H](C)CC)[C@@H](C)CC)C(=O)N[C@@H](Cc1c[nH]cn1)C(=O)N[C@@H](CCC(N)=O)C(=O)NC(C)(C)C(=O)N[C@@H](CC(=O)O)C(=O)N[C@@H](Cc1ccccc1)C(=O)N[C@H](C(=O)N[C@@H](CCC(=O)O)C(=O)N[C@@H](Cc1ccncc1)C(=O)N[C@@H](CCCCNC(=O)COCCOCCNC(=O)COCCOCCNC(=O)CC[C@H](NC(=O)CCCCCCCCCCCCCCCCCCC(=O)O)C(=O)O)C(=O)N[C@@H](CC(C)C)C(=O)N[C@@H](CCC(=O)O)C(=O)NCC(=O)NCC(=O)N1CCC[C@H]1C(=O)N[C@@H](CO)C(=O)N[C@@H](CO)C(=O)NCC(=O)N[C@@H](C)C(=O)N1CCC[C@H]1C(=O)N1CCC[C@H]1C(=O)N1CCC[C@H]1C(=O)N[C@@H](CO)C(N)=O)C(C)C

Target: T1, human glucose-dependent insulinotropic …
Assay: SPA, displacement of [125I]-GIP from hGIPR membranes, 0.1% bacitracin

Binder | Ki
B1 | 121 pM
B2 | 339 pM
B3 | 87.1 pM
B4 | 117 pM
B5 | 134 pM
